# T1: biotinylated recombinant human CD70 (extracellular domain, Fc tag) (human, UniProt P32970 52-193, chemically biotinylated using 5-fold excess of Biotin)
# T1 construct: Bought from ACROBiosystems; also called bio.hCD70; Bio.CD70; not shown: C-terminal Fc Tag of the bought protein (ACROBiosystems)
# T1 sequence: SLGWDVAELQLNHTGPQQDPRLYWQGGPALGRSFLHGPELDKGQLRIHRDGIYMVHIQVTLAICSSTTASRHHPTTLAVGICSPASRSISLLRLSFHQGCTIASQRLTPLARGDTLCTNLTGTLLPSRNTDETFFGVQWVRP
# Target: T1, biotinylated recombinant human CD70 …
# Experiment: crude cell extract HTRF with 2 nM biotinylated hCD70
# From the text: Selected clones bind specially to human CD70 as shown by crude extract HTRF Individual selected ankyrin repeat proteins specifically binding to hCD70 in solution were identified by a Homogeneous Time Resolved Fluorescence (HTRF) assay using crude extracts of ankyrin repeat protein-expressing Escherichia coli cells using standard protocols. Ankyrin repeat protein clones selected by ribosome display were cloned into derivatives of the pQE30 (Qiagen) expression vector (pMPDV25), transformed into E. coli XL1-Blue (Stratagene), plated on LB-agar (containing 1% glucose and 50 μg/ml ampicillin) and then incubated overnight at 37° C. […]
# The extract of each lysed clone was applied as a 1:2000 dilution (final concentration) in PBSTB (PBS supplemented with 0.1% Tween 20® and 0.2% (w/v) BSA, pH 7.4) together with 2 nM (final concentration) biotinylated hCD70, 1:400 (final concentration) of anti-strep-Tb HTRF antibody—FRET donor conjugate (Cisbio) and 1:400 (final concentration) of anti-6His-D2 antibody FRET acceptor conjugate (Cisbio) to a well of 384 well plate and incubated for 60 minutes at RT. The HTRF was read-out on a Tecan M1000 using a 340 nm excitation wavelength and a 665±10 nm emission filter.
binder,measurement,value
DARPin® protein #4 (designed binder) MRGSHHHHHHGSDLGFKLLQAALRGQDDEVRILLAAGADVNAKDQLGTTPLHLAAHYGHLEIVEVLLKAGADVNAKDVWGDTPLHLAAQHGHLEIVEVLLKAGADVNAQDRAGYTPADLAAQEGHEDIAEVLQKAA,binding result,binds
